Target: human ROR1 (hROR1) on the cell surface (human) (UniProt Q01973)
Experiment: cell-based or functional assay

Chain of human ROR1 (hROR1) on the cell surface (human) (Q01973 30-937): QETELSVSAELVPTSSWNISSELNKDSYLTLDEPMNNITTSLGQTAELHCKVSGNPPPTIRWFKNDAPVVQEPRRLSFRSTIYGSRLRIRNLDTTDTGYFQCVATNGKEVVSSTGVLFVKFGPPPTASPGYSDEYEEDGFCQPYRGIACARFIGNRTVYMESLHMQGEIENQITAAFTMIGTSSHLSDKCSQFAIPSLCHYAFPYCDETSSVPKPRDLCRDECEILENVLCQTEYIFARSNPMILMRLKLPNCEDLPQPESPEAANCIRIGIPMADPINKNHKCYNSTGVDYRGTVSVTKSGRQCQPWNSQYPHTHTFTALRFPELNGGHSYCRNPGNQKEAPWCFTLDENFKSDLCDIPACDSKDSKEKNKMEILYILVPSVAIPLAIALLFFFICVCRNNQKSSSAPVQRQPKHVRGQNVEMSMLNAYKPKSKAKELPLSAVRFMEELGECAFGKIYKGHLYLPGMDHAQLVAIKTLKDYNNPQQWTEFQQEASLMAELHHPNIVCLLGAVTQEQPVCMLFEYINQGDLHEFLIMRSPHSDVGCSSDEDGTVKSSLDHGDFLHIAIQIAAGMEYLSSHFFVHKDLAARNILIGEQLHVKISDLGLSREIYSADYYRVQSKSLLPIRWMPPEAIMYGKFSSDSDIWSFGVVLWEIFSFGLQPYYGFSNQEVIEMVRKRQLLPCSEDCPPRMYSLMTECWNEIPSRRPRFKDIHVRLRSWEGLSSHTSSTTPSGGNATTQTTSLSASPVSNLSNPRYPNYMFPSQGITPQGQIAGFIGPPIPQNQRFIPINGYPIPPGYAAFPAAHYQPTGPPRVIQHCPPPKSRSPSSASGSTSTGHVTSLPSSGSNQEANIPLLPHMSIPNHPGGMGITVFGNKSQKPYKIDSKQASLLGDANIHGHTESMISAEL

Substance 2A2-G5-PNU (antibody) has an IC50, in vitro cell killing of 697 cells of 0.125 µg/mL, an IC50, in vitro cell killing of A549 cells of 76.8 µg/mL and an IC50, in vitro cell killing of HS 578T cells of 1.78 µg/mL. The IC50, in vitro cell killing of HT-29 cells was 19.8 µg/mL and the IC50, in vitro cell killing of MDA-MB-468 cells was 0.727 µg/mL.
